Consider 1 molecule from US20200247894A1 (Regeneron, published 2020).

Experiment [1] has as its target T1, Human IL2Rγ extracellular domain expressed with a C-terminal myc-myc-hexahistidine tag (human).
T1 construct: also called hIL-2Rg-MMH; hIL-2RG-MMH
T1 chain: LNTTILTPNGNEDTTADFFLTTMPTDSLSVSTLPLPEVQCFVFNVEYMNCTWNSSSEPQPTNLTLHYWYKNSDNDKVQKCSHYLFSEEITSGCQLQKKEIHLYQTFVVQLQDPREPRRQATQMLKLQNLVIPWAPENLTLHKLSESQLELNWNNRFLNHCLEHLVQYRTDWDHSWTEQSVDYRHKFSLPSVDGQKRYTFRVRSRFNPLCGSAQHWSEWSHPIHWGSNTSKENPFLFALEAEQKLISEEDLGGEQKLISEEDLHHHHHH
Briefly: SPR, captured mAb, 25C, dissociation pH 6.0. A digest of the protocol: (§1)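 kd from 1:1 model fit of sensorgrams. CM5 chip with amine-coupled mouse anti-hFc; hIgG4-Fc mAbs captured; receptor-MMH analyte; 6 min dissociation in PBS-T.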
(In SPR one partner is held on a chip, and binding of the other changes the refractive index at the surface.)

Experiment [2] concerns the target T2, Macaca fascicularis IL2Rγ extracellular domain expressed with a C-terminal myc-myc-hexahistidine tag (Macaca fascicularis).
T2 construct: also called mfIL-2Rg-MMH; mfIL-2RG-MMH
T2 chain: T1 chain with T14A, A16T, T22S, H141R, T228S
Briefly: SPR, captured mAb, 25C, dissociation pH 6.0. A digest of the protocol:
as §1

Experiment [3] concerns the target T1, Human IL2Rγ extracellular domain …. Briefly: SPR, captured mAb, 25C, dissociation pH 7.4. A digest of the protocol: as §1
Experiment [4] has as its target T2, Macaca fascicularis IL2Rγ extracellular …. Briefly: SPR, captured mAb, 25C, dissociation pH 7.4. In short, it runs like this:
as §1

Experiment [5] deals with T1, Human IL2Rγ extracellular domain …. Briefly: SPR, captured mAb, 37C, dissociation pH 7.4. In short, it runs like this:
as §1

For experiment [6] the target is unchanged. Briefly: SPR, captured mAb, 37C, dissociation pH 6.0. In short, it runs like this:
as §1

Residue numbers refer to the chain shown, from its start.

B1: H4H12926P2 (antibody, human IgG4 S228P, kappa, V domains shown)
VH: QVQLQQSGPGLVKPSQTLSLTCAISGDSVSSNIAAWNWIRLSPSRGLEWLGRTFFRSTWFYDYSLSVKGRITINPDTSKNQFSLHLNSVTPEDAAVYYCARTGRRWSLDYWGQGTLVTVSS
VL: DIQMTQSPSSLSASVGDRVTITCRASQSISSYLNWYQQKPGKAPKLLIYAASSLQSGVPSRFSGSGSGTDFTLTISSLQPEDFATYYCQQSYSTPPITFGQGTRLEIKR
notes: anti-IL2Rgamma mAb expressed with human IgG4 Fc
For the molecule B1, the “100 nM Ag Bound (RU)” value in experiment [1] was 24 RU; in experiment [2], 32 RU; in experiment [3] it was 29 RU; in experiment [4], 43 RU; in experiment [5], 14 RU; in experiment [6], 14 RU. Also, the koff (as a rule, a measure of how fast the partners let go of each other) in experiment [1] came to 0.0297 s⁻¹; in experiment [2], 0.0185 s⁻¹; in experiment [3] it was 0.0133 s⁻¹; in experiment [4], 0.00782 s⁻¹; in experiment [5], 0.0308 s⁻¹; in experiment [6] it was 0.0312 s⁻¹. Moreover, the “t1/2” value in experiment [1] was 24 s; in experiment [2], 36 s; in experiment [3] it was 54 s; in experiment [4], 90 s; in experiment [5] it was 24 s; in experiment [6], 24 s.
